The record followed here is patent publication US6982082.

The test has as its target modified CypA (S99T, F113G, C115M) (CypAgtm), overexpressed in E. coli and purified (UniProt P62937). The experiment in a line: direct fluorescence binding assay, purified CypAgtm.

As usually defined, the Kd is the equilibrium constant for the complex coming apart. Low readings indicate a tighter complex, high ones a looser complex.

“alpha-cyclopentyl, sarcosine11-CsA (CpSar11-CsA) (peptide)” registered a Kd of 9 nM.
